Results taken from the RNAGym collection of RNA variant scans (doi:10.1073/pnas.2313332121).

B1: TPR t1 (parent)
chain: GACCAAUCUGCCCUCAGAGCUCGAGAACAUCUUCGGAUGCAGAGGAGGCAGGCUUCGGUGGCGCGAUAGCGCCAACGUCCUCAACCUCCAAUGCAUCCCACCACAUGAUGAUGCCUGAAGAGCCUUGGUUUUUUG

Variants of: B1
Experiment: polymerase ribozyme fitness, log enrichment relative to wild type (log ratio); higher = more active; in vitro selection for triplet polymerase activity
Procedure, shortened: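 Each subunit of a heterodimeric triplet polymerase ribozyme was represented by a PCR-built, transcribed mutant library that underwent triplicate single-round in vitro selection with frozen incubation at −7 °C. Extended constructs were recovered by gel excision, streptavidin-bead capture and RT-PCR, and Illumina sequencing of input and output libraries kept genotypes with ≥10 input reads and ≥1 read per output. Fitness is the logarithm of genotype enrichment relative to wild-type enrichment, from inverse-variance-weighted replicate averages, with a logarithm base of 2.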

Compared with C28G U87G, U33A A46C G61A is lower in “polymerase ribozyme fitness (log ratio)” value: -2.01 for the first, -5.04 for the second.

First: C28G U59G U81C G117C
Second: C28U C62U
The “polymerase ribozyme fitness (log ratio)” value of the first is lower: -6.32 for the first, -2.6 for the second.

Going from C28U C72U C82U to C31U C73A A95C, the “polymerase ribozyme fitness (log ratio)” value falls from -1.52 to -5.67.

Going from U32C G71U to C28U A111C, the “polymerase ribozyme fitness (log ratio)” value falls from -1.13 to -3.29.

Compared with C28U A111U, U32C U112A is higher in “polymerase ribozyme fitness (log ratio)” value: -3.7 for the first, 1.49 for the second.

Going from U33A U87A to A29G C40A C99G A111G, the “polymerase ribozyme fitness (log ratio)” value falls from -4.12 to -7.69.

First: A29G C49G C85G
Second: U30C U87G
The “polymerase ribozyme fitness (log ratio)” value of the first is higher: -2.46 for the first, -2.72 for the second.

A29U G61U U106G and A29G A37U G61U are within 0.2 log units of each other in “polymerase ribozyme fitness (log ratio)” value: -1.91 for the first, -1.98 for the second.

Compared with C28U C40U G51C C76A, C28G U38A C86U is higher in “polymerase ribozyme fitness (log ratio)” value: -6.21 for the first, -5.02 for the second.

C28U G63C U78C U92G C99G A103U G110A and U33A A46U are within 0.2 log units of each other in “polymerase ribozyme fitness (log ratio)” value: -4.52 for the first, -4.71 for the second.

Going from U32A G48U G58A C123U to C31U U112G, the “polymerase ribozyme fitness (log ratio)” value falls from -4.55 to -4.94.

Going from U30C C49A C62A C115A to A29U A50U U78A G93C, the “polymerase ribozyme fitness (log ratio)” value rises from -4.4 to -4.11.

A29G A91G G113A and C28G C72G are within 0.2 log units of each other in “polymerase ribozyme fitness (log ratio)” value: -2.3 for the first, -2.2 for the second.

C28U A29G and U32G C97G A119G are within 0.2 log units of each other in “polymerase ribozyme fitness (log ratio)” value: -5.97 for the first, -6.08 for the second.

Compared with C28G G110A G128U, C28U G71C C124U is higher in “polymerase ribozyme fitness (log ratio)” value: -2.89 for the first, -2.51 for the second.

First: A29U C76U U78A
Second: C28G G63U
The “polymerase ribozyme fitness (log ratio)” value of the first is higher: -2.22 for the first, -4.26 for the second.

C28G G48A C72U and C28U A37C C76G are within 0.2 log units of each other in “polymerase ribozyme fitness (log ratio)” value: -3.41 for the first, -3.54 for the second.

Going from U32A G44A C94A C99G G120U to U32G A119G, the “polymerase ribozyme fitness (log ratio)” value rises from -7.6 to -5.95.

First: C28G G52A C70U C86U C101U G110A U131G
Second: U30G A43U G45U G47A C49A C73A U106A A119G
The “polymerase ribozyme fitness (log ratio)” value of the first is higher: -2.57 for the first, -3.78 for the second.

First: A29C U112A
Second: C31U C34G C53G C70G A90C G120A G122A C124A
The “polymerase ribozyme fitness (log ratio)” value of the first is higher: -2.33 for the first, -7.98 for the second.

Going from C28G G71U to A29C G71A C88G C123A U131C, the “polymerase ribozyme fitness (log ratio)” value falls from -2.39 to -4.27.

Going from A29G C124A to A29G C124U, the “polymerase ribozyme fitness (log ratio)” value rises from 0.584 to 1.18.

Going from A29U A111C C115G U125G U133A to A29C C56G C82A U87C C89A A108G C124A, the “polymerase ribozyme fitness (log ratio)” value falls from -4.49 to -7.12.

First: U32G C115A
Second: C31A A111C
The “polymerase ribozyme fitness (log ratio)” value of the first is lower: -5.41 for the first, -3.67 for the second.

Compared with C31U A46U C85U, C28U C40A G120C is higher in “polymerase ribozyme fitness (log ratio)” value: -7.42 for the first, -2.59 for the second.

Going from C31U A50U C53U C72U G93A C124U to A29G G36A G69A G71U C104U, the “polymerase ribozyme fitness (log ratio)” value rises from -7.15 to -6.16.

A29G U32C U106A and C28U C72U are within 0.2 log units of each other in “polymerase ribozyme fitness (log ratio)” value: -2.24 for the first, -2.26 for the second.

Going from C28U C72G to U32C A105G U109G G117A, the “polymerase ribozyme fitness (log ratio)” value falls from -2.23 to -7.37.

Going from C28U U133G to A29U C40U G44U C85U C89A C94G, the “polymerase ribozyme fitness (log ratio)” value falls from -1.83 to -4.32.

Compared with U32C C72A C82A A83U, C28U C72G U78A is lower in “polymerase ribozyme fitness (log ratio)” value: -0.635 for the first, -2.79 for the second.

A29G C53A C70G G110C and A29U G48U C70G C123U are within 0.2 log units of each other in “polymerase ribozyme fitness (log ratio)” value: -5.69 for the first, -5.55 for the second.

Compared with C31U C123G G127A, U33C C124A is higher in “polymerase ribozyme fitness (log ratio)” value: -4.45 for the first, -2.98 for the second.

Going from A29U G48C G113C U129A to U32C C56U C72U A111U, the “polymerase ribozyme fitness (log ratio)” value rises from -4.71 to -3.66.

First: A29G C72A
Second: U33A C88G
The “polymerase ribozyme fitness (log ratio)” value of the first is higher: -1.27 for the first, -4.9 for the second.

U32A U38C G69C A95U and U32C A46U G63C C104A G117C are within 0.2 log units of each other in “polymerase ribozyme fitness (log ratio)” value: -6.24 for the first, -6.2 for the second.

First: C31G G57A G58C G63A U112C
Second: C28U G63U G77A C94A U112C
The “polymerase ribozyme fitness (log ratio)” value of the first is lower: -7.16 for the first, -6.92 for the second.

Compared with C28U G60A C72G G110C C115G G120U, A29G U38G A43U A90C G113U U125C is higher in “polymerase ribozyme fitness (log ratio)” value: -7.22 for the first, -3.96 for the second.

Compared with U32C G52U G77U C79A A90G C115U U126A, A29G A41C A119U U133G is higher in “polymerase ribozyme fitness (log ratio)” value: -5.37 for the first, -2.94 for the second.

First: C28U C64U U87A
Second: A29U C82A
The “polymerase ribozyme fitness (log ratio)” value of the first is higher: -1.96 for the first, -2.3 for the second.

Going from C31G G47A C80G C115U U126A to A29C A37C C53A G110U, the “polymerase ribozyme fitness (log ratio)” value rises from -8 to -5.11.

Compared with C28U G48A C53G C89U, A29U G77C U112G G127C is lower in “polymerase ribozyme fitness (log ratio)” value: -3.42 for the first, -5.41 for the second.

Compared with C28G C72A C102G G107A, C28U C82A C114U is higher in “polymerase ribozyme fitness (log ratio)” value: -7.59 for the first, -3.98 for the second.
